# Results published in patent publication US20140072613A1, “Compositions and Methods for Treating Cutaneous Scarring” (priority 2012, published 2014).
# How the values were obtained:
# Assay in all cases: cell-based or functional assay
# CDK5/p35(h) (human) = CDK5/p35(h) (human) (UniProt Q00535)
# PKCβII(h) (human) = PKCβII(h) (human) (UniProt P05771)
# c-RAF(h) (human) = c-RAF(h) (human) (UniProt P04049)
# Ron(h) (human) = Ron(h) (human) (UniProt Q04912)
# Src(1-530)(h) (human) = Src(1-530)(h) (human) (UniProt P12931)
# MSK1(h) (human) = MSK1(h) (human) (UniProt O75582)
# Sequence of MSK1(h) (human) (O75582 whole entry): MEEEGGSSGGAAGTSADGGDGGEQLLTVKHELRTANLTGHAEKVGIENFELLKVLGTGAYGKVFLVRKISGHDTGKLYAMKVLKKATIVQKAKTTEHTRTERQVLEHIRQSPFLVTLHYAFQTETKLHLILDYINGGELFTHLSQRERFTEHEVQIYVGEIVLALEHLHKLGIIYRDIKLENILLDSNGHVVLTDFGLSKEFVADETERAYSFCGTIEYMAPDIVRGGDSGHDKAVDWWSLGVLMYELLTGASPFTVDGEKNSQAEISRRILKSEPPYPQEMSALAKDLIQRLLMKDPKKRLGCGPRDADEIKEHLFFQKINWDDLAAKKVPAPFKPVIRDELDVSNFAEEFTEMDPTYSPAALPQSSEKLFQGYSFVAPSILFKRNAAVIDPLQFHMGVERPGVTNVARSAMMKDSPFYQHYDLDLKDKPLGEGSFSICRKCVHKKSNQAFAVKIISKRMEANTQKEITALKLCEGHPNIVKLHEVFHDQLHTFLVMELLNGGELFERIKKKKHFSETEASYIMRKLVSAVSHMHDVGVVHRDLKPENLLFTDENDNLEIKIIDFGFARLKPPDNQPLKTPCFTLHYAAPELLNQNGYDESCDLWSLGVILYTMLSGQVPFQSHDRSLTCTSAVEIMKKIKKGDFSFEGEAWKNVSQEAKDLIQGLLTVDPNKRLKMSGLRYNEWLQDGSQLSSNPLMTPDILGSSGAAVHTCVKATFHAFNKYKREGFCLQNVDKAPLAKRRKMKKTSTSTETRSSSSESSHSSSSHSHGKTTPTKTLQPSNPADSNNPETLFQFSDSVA
# EphB3(h) (human) = EphB3(h) (human) (UniProt P54753)
# CK1δ(h) (human) = CK1δ(h) (human) (UniProt P48730)
# Sequence of CK1δ(h) (human) (P48730 1-294, stated change not applied): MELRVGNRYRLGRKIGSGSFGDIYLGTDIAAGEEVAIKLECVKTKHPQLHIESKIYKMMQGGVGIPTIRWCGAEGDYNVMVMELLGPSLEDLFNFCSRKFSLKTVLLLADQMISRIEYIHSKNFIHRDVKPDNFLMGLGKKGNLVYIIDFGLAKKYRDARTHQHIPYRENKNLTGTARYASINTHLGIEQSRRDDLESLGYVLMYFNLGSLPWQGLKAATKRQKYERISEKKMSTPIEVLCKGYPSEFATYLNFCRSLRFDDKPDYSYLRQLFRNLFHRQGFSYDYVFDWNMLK
# Abl(h) (human) = Abl(h) (human) (UniProt P00519)
# PDK1(h) (human) = molecular target: T1, PDK1(h) (human) (UniProt O15530)
# T1 sequence (looked up): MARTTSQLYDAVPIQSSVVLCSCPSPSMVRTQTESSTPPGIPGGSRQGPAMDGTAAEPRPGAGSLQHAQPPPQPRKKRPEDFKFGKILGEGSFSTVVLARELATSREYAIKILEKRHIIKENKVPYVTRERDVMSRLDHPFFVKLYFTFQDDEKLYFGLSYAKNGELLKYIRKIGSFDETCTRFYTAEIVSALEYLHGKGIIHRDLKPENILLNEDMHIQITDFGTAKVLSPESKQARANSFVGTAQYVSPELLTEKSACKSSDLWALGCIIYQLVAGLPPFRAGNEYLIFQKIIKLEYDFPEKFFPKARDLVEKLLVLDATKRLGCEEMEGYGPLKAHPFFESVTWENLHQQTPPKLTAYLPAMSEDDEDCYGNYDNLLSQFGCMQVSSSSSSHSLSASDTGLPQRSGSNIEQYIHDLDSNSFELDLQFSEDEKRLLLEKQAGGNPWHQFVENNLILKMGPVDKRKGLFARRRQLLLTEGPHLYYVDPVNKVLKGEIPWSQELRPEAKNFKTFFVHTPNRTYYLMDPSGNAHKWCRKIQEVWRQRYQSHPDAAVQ
# CDK2/cyclinA(h) (human) = CDK2/cyclinA(h) (human) (UniProt P24941)
# Tie2(Y897S)(h) (human) = Tie2(Y897S)(h) (human) (UniProt Q02763)
# SIK(h) (human) = SIK(h) (human) (UniProt P57059)
# PKA(h) (human) = PKA(h) (human) (UniProt P17612)
# Snk(h) (human) = Snk(h) (human) (UniProt Q9NYY3)
# Sequence of Snk(h) (human) (Q9NYY3 whole entry): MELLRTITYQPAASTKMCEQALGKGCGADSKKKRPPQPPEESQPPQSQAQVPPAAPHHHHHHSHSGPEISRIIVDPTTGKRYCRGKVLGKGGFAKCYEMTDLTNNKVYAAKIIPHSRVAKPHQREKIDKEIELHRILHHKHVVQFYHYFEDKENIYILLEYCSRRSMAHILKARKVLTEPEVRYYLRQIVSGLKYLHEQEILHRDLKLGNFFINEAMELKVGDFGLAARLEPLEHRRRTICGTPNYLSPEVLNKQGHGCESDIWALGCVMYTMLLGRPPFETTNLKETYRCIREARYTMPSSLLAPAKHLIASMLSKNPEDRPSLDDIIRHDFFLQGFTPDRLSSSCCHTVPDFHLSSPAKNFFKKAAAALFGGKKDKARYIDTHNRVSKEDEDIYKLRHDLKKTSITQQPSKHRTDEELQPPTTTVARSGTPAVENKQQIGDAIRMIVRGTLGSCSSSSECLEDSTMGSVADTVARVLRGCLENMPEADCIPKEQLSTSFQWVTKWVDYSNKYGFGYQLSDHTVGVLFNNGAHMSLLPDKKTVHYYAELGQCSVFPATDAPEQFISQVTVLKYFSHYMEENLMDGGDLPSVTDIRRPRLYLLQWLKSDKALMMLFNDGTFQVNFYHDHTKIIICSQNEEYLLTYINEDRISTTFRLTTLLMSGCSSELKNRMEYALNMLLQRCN
# Pim-1(h) (human) = Pim-1(h) (human) (UniProt P11309)
# Sequence of Pim-1(h) (human) (P11309 whole entry): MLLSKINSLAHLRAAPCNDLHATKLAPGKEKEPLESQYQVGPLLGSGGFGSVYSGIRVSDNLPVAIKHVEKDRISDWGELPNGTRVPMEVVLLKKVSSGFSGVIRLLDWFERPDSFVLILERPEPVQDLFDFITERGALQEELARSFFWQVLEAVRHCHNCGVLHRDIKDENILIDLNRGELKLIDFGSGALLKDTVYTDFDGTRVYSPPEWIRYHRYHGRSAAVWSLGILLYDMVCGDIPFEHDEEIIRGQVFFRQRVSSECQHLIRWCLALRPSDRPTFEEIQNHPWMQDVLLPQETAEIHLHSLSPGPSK
# TSSK2(h) (human) = molecular target: T2, TSSK2(h) (human) (UniProt Q96PF2)
# T2 sequence (looked up): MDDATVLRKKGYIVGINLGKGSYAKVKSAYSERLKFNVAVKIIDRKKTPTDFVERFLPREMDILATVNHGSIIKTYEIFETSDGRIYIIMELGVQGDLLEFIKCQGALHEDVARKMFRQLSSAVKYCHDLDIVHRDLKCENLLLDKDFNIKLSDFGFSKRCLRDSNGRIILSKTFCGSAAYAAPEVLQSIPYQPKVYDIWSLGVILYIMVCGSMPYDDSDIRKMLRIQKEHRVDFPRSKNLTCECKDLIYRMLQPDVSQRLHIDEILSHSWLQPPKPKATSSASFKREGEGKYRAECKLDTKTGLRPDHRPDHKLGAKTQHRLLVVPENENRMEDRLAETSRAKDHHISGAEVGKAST
# ZAP-70(h) (human) = ZAP-70(h) (human) (UniProt P43403)
# PAK2(h) (human) = PAK2(h) (human) (UniProt Q13177)
# Sequence of PAK2(h) (human) (Q13177 whole entry): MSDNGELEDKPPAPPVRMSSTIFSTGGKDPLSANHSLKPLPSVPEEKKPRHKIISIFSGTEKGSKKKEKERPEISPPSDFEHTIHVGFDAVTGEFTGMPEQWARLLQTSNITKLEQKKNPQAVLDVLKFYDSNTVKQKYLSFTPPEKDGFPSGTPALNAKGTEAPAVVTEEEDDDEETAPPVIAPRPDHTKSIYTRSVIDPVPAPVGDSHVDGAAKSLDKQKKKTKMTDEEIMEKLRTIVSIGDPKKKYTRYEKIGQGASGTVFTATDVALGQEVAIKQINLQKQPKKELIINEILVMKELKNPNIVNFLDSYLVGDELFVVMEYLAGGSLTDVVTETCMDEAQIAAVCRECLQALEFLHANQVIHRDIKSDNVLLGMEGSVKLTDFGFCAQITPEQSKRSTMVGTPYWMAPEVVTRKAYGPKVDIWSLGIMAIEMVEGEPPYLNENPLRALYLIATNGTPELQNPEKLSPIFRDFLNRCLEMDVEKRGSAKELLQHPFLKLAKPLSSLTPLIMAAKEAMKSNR
# HIPK1(h) (human) = HIPK1(h) (human) (UniProt Q86Z02)
# NEK2(h) (human) = molecular target: T3, NEK2(h) (human) (UniProt P51955)
# T3 sequence (looked up): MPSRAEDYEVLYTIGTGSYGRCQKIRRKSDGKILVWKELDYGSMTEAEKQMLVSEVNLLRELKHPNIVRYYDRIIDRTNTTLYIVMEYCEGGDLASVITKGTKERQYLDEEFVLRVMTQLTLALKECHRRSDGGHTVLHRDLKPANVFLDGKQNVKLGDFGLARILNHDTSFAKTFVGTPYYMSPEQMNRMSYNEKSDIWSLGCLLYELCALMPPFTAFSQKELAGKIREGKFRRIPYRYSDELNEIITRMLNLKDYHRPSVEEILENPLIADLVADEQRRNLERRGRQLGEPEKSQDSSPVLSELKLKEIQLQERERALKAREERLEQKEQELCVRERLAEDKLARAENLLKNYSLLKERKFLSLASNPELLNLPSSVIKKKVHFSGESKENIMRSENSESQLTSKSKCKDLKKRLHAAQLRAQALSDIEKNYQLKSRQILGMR
# PTK5(h) (human) = PTK5(h) (human) (UniProt P42685)
# RIPK2(h) (human) = RIPK2(h) (human) (UniProt O43353)
# Sequence of RIPK2(h) (human) (O43353 1-299 limits assumed): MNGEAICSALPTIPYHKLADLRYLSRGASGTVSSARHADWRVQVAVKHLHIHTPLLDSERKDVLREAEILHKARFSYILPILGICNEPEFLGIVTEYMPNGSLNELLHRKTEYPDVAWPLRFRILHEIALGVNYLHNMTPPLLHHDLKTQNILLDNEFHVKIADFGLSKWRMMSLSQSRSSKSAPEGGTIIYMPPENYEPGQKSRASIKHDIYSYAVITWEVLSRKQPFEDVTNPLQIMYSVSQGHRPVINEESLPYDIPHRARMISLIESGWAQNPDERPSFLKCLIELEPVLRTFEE
# MRCKβ(h) (human) = MRCKβ(h) (human) (UniProt Q9Y5S2)
# CHK2(R145W)(h) (human) = CHK2(R145W)(h) (human) (UniProt O96017)
# CDK2/cyclinE(h) (human) = CDK2/cyclinE(h) (human) (UniProt P24941)
# BRK(h) (human) = BRK(h) (human) (UniProt Q13882)
# MINK(h) (human) = MINK(h) (human) (UniProt Q8N4C8)
# Sequence of MINK(h) (human) (Q8N4C8 1-320 limits assumed): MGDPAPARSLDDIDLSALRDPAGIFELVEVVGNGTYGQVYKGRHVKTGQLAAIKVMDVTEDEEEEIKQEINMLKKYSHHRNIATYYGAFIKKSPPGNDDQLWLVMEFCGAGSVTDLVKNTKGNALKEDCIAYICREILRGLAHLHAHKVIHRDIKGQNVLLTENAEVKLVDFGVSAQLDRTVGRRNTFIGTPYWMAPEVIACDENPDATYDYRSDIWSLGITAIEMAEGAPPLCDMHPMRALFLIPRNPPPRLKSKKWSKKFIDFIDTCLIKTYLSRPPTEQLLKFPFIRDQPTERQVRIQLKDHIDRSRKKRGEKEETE
# PKG1α(h) (human) = PKG1α(h) (human) (UniProt Q13976)
# Sequence of PKG1α(h) (human) (Q13976 whole entry): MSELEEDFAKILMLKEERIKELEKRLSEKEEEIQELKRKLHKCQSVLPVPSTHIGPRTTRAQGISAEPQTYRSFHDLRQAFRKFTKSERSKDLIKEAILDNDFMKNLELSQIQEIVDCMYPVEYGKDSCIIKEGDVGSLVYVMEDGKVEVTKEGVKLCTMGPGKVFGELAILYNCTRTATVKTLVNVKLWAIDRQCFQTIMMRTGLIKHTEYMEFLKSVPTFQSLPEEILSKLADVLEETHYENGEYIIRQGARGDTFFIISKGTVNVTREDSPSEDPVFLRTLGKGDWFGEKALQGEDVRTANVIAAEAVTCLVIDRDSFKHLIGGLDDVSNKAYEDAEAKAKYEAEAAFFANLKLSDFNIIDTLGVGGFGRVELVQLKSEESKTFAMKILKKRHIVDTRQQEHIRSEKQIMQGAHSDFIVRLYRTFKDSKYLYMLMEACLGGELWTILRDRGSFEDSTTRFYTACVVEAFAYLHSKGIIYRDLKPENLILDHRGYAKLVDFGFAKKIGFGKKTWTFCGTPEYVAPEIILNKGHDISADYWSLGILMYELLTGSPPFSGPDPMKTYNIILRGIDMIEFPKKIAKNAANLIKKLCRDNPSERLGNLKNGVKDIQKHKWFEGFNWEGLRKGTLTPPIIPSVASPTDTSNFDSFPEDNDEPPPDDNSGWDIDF
# Sequence of PKCβII(h) (human) (P05771 other isoform, or with tags, fused parts or gaps): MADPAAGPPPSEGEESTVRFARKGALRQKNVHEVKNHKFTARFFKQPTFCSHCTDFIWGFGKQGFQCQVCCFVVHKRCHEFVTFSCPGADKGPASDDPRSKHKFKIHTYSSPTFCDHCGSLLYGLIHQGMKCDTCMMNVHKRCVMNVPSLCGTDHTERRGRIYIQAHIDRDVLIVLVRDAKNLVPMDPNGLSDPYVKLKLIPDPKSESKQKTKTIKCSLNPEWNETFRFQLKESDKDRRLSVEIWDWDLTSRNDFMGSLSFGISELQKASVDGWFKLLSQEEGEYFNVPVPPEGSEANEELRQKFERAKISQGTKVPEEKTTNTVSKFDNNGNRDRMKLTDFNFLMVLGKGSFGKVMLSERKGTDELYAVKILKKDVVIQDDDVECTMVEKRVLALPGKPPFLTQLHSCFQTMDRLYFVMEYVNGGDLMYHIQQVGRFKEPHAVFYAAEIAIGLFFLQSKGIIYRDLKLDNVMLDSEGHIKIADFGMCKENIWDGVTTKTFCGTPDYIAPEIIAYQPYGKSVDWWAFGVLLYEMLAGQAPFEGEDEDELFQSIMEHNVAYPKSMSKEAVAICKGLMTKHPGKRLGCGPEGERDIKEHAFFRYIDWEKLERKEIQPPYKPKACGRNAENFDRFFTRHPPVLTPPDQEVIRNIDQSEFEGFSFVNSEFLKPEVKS
# Sequence of Ron(h) (human) (Q04912 983-1400 limits assumed): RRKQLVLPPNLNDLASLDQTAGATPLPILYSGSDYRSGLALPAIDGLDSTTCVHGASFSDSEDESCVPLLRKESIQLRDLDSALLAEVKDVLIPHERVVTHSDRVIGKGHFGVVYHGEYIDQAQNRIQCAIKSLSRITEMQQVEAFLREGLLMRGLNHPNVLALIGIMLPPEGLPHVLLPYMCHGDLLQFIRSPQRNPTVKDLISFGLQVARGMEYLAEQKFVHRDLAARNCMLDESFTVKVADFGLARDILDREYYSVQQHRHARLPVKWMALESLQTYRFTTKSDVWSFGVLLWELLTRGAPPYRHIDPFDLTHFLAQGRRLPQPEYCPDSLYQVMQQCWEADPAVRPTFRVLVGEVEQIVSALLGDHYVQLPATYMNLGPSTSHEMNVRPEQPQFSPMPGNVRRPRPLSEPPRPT
substance,measurement,setting,value
MMI-0500 (peptide),"% activity, 100 µM",CDK5/p35(h) (human),59%
same,"% activity, 100 µM",PKCβII(h) (human),3%
same,"% activity, 100 µM",c-RAF(h) (human),19%
same,"% activity, 100 µM",Ron(h) (human),46%
same,"% activity, 100 µM",Src(1-530)(h) (human),21%
same,"% activity, 100 µM",MSK1(h) (human),8%
same,"% activity, 100 µM",EphB3(h) (human),79%
same,"% activity, 100 µM",CK1δ(h) (human),78%
same,"% activity, 100 µM",Abl(h) (human),16%
same,"% activity, 100 µM",PDK1(h) (human),178%
same,"% activity, 100 µM",CDK2/cyclinA(h) (human),87%
same,"% activity, 100 µM",Tie2(Y897S)(h) (human),80%
same,"% activity, 100 µM",SIK(h) (human),40%
same,"% activity, 100 µM",PKA(h) (human),118%
same,"% activity, 100 µM",Snk(h) (human),122%
same,"% activity, 100 µM",Pim-1(h) (human),0%
same,"% activity, 100 µM",TSSK2(h) (human),92%
same,"% activity, 100 µM",ZAP-70(h) (human),1%
same,"% activity, 100 µM",PAK2(h) (human),44%
same,"% activity, 100 µM",HIPK1(h) (human),47%
same,"% activity, 100 µM",NEK2(h) (human),0%
same,"% activity, 100 µM",PTK5(h) (human),96%
same,"% activity, 100 µM",RIPK2(h) (human),30%
same,"% activity, 100 µM",MRCKβ(h) (human),-10%
same,"% activity, 100 µM",CHK2(R145W)(h) (human),3%
same,"% activity, 100 µM",CDK2/cyclinE(h) (human),19%
same,"% activity, 100 µM",BRK(h) (human),41%
same,"% activity, 100 µM",MINK(h) (human),5%
same,"% activity, 100 µM",PKG1α(h) (human),25%
